Experimental data taken from the supplement of paper PMC6755084.

B1: F1*; the commonest letter at each place (parent)
chain: GAGACCGCAACTGAAAAGTTGTTATCACTTGTCGTAAGACACTTTGGATGGGTTGAAGTTCTGCACGTAGAAGCAAAAGGC

Variants of: B1
Test: fraction ligated after 30 min (ligated reads / total reads); higher = more ligase activity
Details: with F1*sub RNA substrate (template-directed ligation), 42 °C
Protocol: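 Chip-synthesised pool of F1* ligase ribozyme variants (all single and double substitutions, single, double and triple deletions in the catalytic core and GAA bulge, plus designed variants) was transcribed with T7 and reacted as a pool with excess substrate F1*sub for 30 min at 42 C in 50 mM EPPS pH 8.5, 25 mM MgCl2. Ligated and unligated bands were separated by PAGE, barcoded by RT and deep sequenced; fraction ligated = ligated reads / total reads per variant, relative activity = FL / FL of wild type (0.826). Sequences are the DNA template of the ribozyme.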

Row | Variant | fraction ligated
1 | C26A T45C | 0.0795
2 | C26A T45G | 0.0382
3 | C26A T49A | 0.216
4 | C26A T49C | 0.0891
5 | C26A T49G | 0.502
6 | C26G | 0.773
7 | C26G A27C | 0.782
8 | C26G A27G | 0.694
9 | C26G A27T | 0.411
10 | C26G A36C | 0.0567
11 | C26G A36G | 0.767
12 | C26G A36T | 0.773
13 | C26G A37C | 0.674
14 | C26G A37G | 0.762
15 | C26G A37T | 0.707
16 | C26G A39C | 0.123
17 | C26G A39G | 0.755
18 | C26G A39T | 0.493
19 | C26G A41C | 0.0431
20 | C26G A41G | 0.716
21 | C26G A41T | 0.459
22 | C26G A48C | 0.104
23 | C26G A48G | 0.058
24 | C26G A48T | 0.00571

Row | Variant | fraction ligated
25 | C26G A56C | 0.0241
26 | C26G A56G | 0.0248
27 | C26G A56T | 0.0342
28 | C26G A57C | 0.33
29 | C26G A57G | 0.576
30 | C26G A57T | 0.312
31 | C26G C28A | 0.688
32 | C26G C28G | 0.611
33 | C26G C28T | 0.558
34 | C26G C33A | 0.473
35 | C26G C33G | 0.754
36 | C26G C33T | 0.738
37 | C26G C40A | 0.248
38 | C26G C40G | 0.793
39 | C26G C40T | 0.678
40 | C26G C42A | 0.767
41 | C26G C42G | 0.7
42 | C26G C42T | 0.76
43 | C26G G31A | 0.165
44 | C26G G31C | 0.176
45 | C26G G31T | 0.0375
46 | C26G G34A | 0.357
47 | C26G G34C | 0.371
48 | C26G G34T | 0.718

Row | Variant | fraction ligated
49 | C26G G38A | 0.446
50 | C26G G38C | 0.00552
51 | C26G G38T | 0.0811
52 | C26G G46A | 0.785
53 | C26G G46C | 0.719
54 | C26G G46T | 0.417
55 | C26G G47A | 0.8
56 | C26G G47C | 0.404
57 | C26G G47T | 0.159
58 | C26G G50A | 0.0221
59 | C26G G50C | 0.0252
60 | C26G G50T | 0.0691
61 | C26G G55A | 0.169
62 | C26G G55C | 0.00657
63 | C26G G55T | 0.0355
64 | C26G T29A | 0.789
65 | C26G T29C | 0.749
66 | C26G T29G | 0.778
67 | C26G T30A | 0.8
68 | C26G T30C | 0.676
69 | C26G T30G | 0.757
70 | C26G T32A | 0.238
71 | C26G T32C | 0.245
72 | C26G T32G | 0.125

Row | Variant | fraction ligated
73 | C26G T35A | 0.79
74 | C26G T35C | 0.772
75 | C26G T35G | 0.784
76 | C26G T43A | 0.783
77 | C26G T43C | 0.689
78 | C26G T43G | 0.479
79 | C26G T44A | 0.781
80 | C26G T44C | 0.731
81 | C26G T44G | 0.776
82 | C26G T45A | 0.0653
83 | C26G T45C | 0.00783
84 | C26G T45G | 0.0236
85 | C26G T49A | 0.188
86 | C26G T49C | 0.0764
87 | C26G T49G | 0.371
88 | C26T | 0.836
89 | C26T A27C | 0.811
90 | C26T A27G | 0.771
91 | C26T A27T | 0.808
92 | C26T A36C | 0.788
93 | C26T A36G | 0.828
94 | C26T A36T | 0.827
95 | C26T A37C | 0.841
96 | C26T A37G | 0.841

Row | Variant | fraction ligated
97 | C26T A37T | 0.853
98 | C26T A39C | 0.789
99 | C26T A39G | 0.819
100 | C26T A39T | 0.823
101 | C26T A41C | 0.771
102 | C26T A41G | 0.813
103 | C26T A41T | 0.796
104 | C26T A48C | 0.418
105 | C26T A48G | 0.756
106 | C26T A48T | 0.0105
107 | C26T A56C | 0.29
108 | C26T A56G | 0.768
109 | C26T A56T | 0.867
110 | C26T A57C | 0.84
111 | C26T A57G | 0.86
112 | C26T A57T | 0.852
113 | C26T C28A | 0.795
114 | C26T C28G | 0.768
115 | C26T C28T | 0.733
116 | C26T C33A | 0.798
117 | C26T C33G | 0.819
118 | C26T C33T | 0.829
119 | C26T C40A | 0.797
120 | C26T C40G | 0.817

Row | Variant | fraction ligated
121 | C26T C40T | 0.833
122 | C26T C42A | 0.804
123 | C26T C42G | 0.795
124 | C26T C42T | 0.837
125 | C26T G31A | 0.342
126 | C26T G31C | 0.408
127 | C26T G31T | 0.585
128 | C26T G34A | 0.832
129 | C26T G34C | 0.855
130 | C26T G34T | 0.812
131 | C26T G38A | 0.823
132 | C26T G38C | 0.81
133 | C26T G38T | 0.478
134 | C26T G46A | 0.835
135 | C26T G46C | 0.81
136 | C26T G46T | 0.758
137 | C26T G47A | 0.843
138 | C26T G47C | 0.0296
139 | C26T G47T | 0.182
140 | C26T G50A | 0.0828
141 | C26T G50C | 0.0206
142 | C26T G50T | 0.238
143 | C26T G55A | 0.811
144 | C26T G55C | 0.3

Row | Variant | fraction ligated
145 | C26T G55T | 0.815
146 | C26T T29A | 0.845
147 | C26T T29C | 0.848
148 | C26T T29G | 0.816
149 | C26T T30A | 0.832
150 | C26T T30C | 0.839
151 | C26T T30G | 0.861
152 | C26T T32A | 0.701
153 | C26T T32C | 0.792
154 | C26T T32G | 0.801
155 | C26T T35A | 0.854
156 | C26T T35C | 0.792
157 | C26T T35G | 0.817
158 | C26T T43A | 0.827
159 | C26T T43C | 0.788
160 | C26T T43G | 0.79
161 | C26T T44A | 0.845
162 | C26T T44C | 0.822
163 | C26T T44G | 0.836
164 | C26T T45A | 0.779
165 | C26T T45C | 0.524
166 | C26T T45G | 0.28
167 | C26T T49A | 0.392
